Measurements taken from US9976134B2, “Thermolysin variants” (Danisco US Inc., priority 2007, dated 2018).

Experiment: Stability assay in 25% TIDE 2X detergent with DTPA (residual Abz-AGLA-Nba protease activity)
Format: physicochemical
Settings: 60 min at 32°C; variant residual AGLA activity divided by wild-type residual activity
Description: The stability of thermolysin and variants thereof was measured after incubation under defined conditions in the presence of 25% TIDE® 2× detergent. The initial and residual activity was determined.
MTPs were obtained from Costar (type 9017) and from Greiner (black plate, type 655076). Test Method Unstressed Conditions:
First, 20 μl thermolysin containing culture supernatant was diluted with 180 μl MES assay buffer. Then, 20 μl diluted supernatant was diluted further with 180 μl MES assay buffer. Subsequently 10 μl of this dilution was transferred into 190 μl AGLA-substrate solution in a pre-warmed plate (Greiner 655076) at 25° C. Any air bubbles present were blown away and the plate was measured according to the AGLA protease assay protocol described below.
First, 20 μl of culture supernatant was diluted with 180 μl 27.5% TIDE®+detergent solution and placed in the iEMS shaker. The plate covered with a plate seal was incubated for a total of 60 minutes at 32° C. at 900 rpm. In addition, 20 μl of culture supernatant was diluted with 180 μl 27.5% TIDE®−solution and placed in the iEMS shaker. This plate covered with a plate seal was incubated for a total of 180 minutes at 50° C. at 900 rpm.
Subsequently after the respective incubations, 20 μl of either of these solutions were diluted with 180 μl MES assay buffer and 10 μl of this dilution were diluted with 190 μl AGLA-substrate solution in a pre-warmed plate (Greiner 655076) at 25° C.
Fluorescence measurements were taken at excitation of 350 nm and emission of 420 nm. The spectrofluorometer software calculated the reaction rates (=slope) of the increase in fluorescence for each well to a linearly regressed line of (milli-) RFU/min. The ratio of the residual and initial AGLA activity was used to express the 25% TIDE® 2× stability as follows: Percentage of residual activity=[slope of stressed]*100/[slope of unstressed]
For each sample (thermolysin and variants thereof) the performance index was calculated by dividing the residual activity of the variant by the residual activity of thermolysin. The performance index compared the stability of the variant and the standard thermolysin enzyme (e.g., wild type or parental enzyme), determined under the same conditions.
In these experiments, the liberation of Abz-AG by protease cleavage of Abz-AGLA-Nba was monitored by fluorescence spectrometry (Ex. 350/Em. 420). The rate of appearance of Abz-AG was a measure of proteolytic activity.
The Abz-AGLA-Nba assay solution was prepared by adding 1 ml of the Abz-AGLA-Nba stock to 19 ml MES substrate buffer and mixed well for at least 2 minutes. Subsequently the thermolysin or variants thereof containing culture supernatants were diluted with MES assay buffer to a concentration of 1-6 μg protein per ml.
The assay was performed by adding 10 μl of diluted protease solution to each well, followed by the addition of 190 μl Abz-AGLA-Nba assay solution that was pre-equilibrated for at least 15 minutes at 25° C. The solutions were vigorously mixed, and the liberation of Abz-AG by protease cleavage of Abz-AGLA-Nba was monitored by fluorescence spectrometry at 25° C. in kinetic mode with excitation set at 350 nm and emission set at 420 nm. The rate of appearance of Abz-AG was a measure of proteolytic activity in the samples. The protease activity was expressed as RFU (relative fluorescence units·min^−1).
As described in Example 1, the stability of thermolysin variants was measured by determining the AGLA activity before and after incubation in the presence of TIDE® 2× heavy duty liquid (HDL) detergent at an elevated temperature. The tables contain the relative stability values compared to wild-type thermolysin, which is the quotient of the variant residual activity divided by the wild-type residual activity. A value greater than one indicates higher stability in the presence of detergent. […]

Molecule | PI (relative stability), 25% TIDE 2X with DTPA
Q273A: single-substitution thermolysin variant (SEQ ID NO:3 numbering) (protein, listed as Geobacillus caldoproteolyticus) ITGTSTVGVGRGVLGDQKNINTTYSTYYYLQDNTRGNGIFTYDAKYRTTLPGSLWADADNQFFASYDAPAVDAHYYAGVTYDYYKNVHNRLSYDGNNAAIRSSVHYSQGYNNAFWNGSQMVYGDGDGQTFIPLSGGIDVVAHELTHAVTDYTAGLIYQNESGAINEAISDIFGTLVEFYANKNPDWEIGEDVYTPGISGDSLRSMSDPAKYGDPDHYSKRYTGTQDNGGVHINSGIINKAAYLISQGGTHYGVSVVGIGRDKLGKIFYRALTAYLTPTSNFSQLRAAAVQSATDLYGSTSQEVASVKQAFDAVGVK | 1.03
T278N: single-substitution thermolysin variant (SEQ ID NO:3 numbering) (protein, listed as Geobacillus caldoproteolyticus) ITGTSTVGVGRGVLGDQKNINTTYSTYYYLQDNTRGNGIFTYDAKYRTTLPGSLWADADNQFFASYDAPAVDAHYYAGVTYDYYKNVHNRLSYDGNNAAIRSSVHYSQGYNNAFWNGSQMVYGDGDGQTFIPLSGGIDVVAHELTHAVTDYTAGLIYQNESGAINEAISDIFGTLVEFYANKNPDWEIGEDVYTPGISGDSLRSMSDPAKYGDPDHYSKRYTGTQDNGGVHINSGIINKAAYLISQGGTHYGVSVVGIGRDKLGKIFYRALTQYLTPNSNFSQLRAAAVQSATDLYGSTSQEVASVKQAFDAVGVK | 1.07
T278Y: single-substitution thermolysin variant (SEQ ID NO:3 numbering) (protein, listed as Geobacillus caldoproteolyticus) ITGTSTVGVGRGVLGDQKNINTTYSTYYYLQDNTRGNGIFTYDAKYRTTLPGSLWADADNQFFASYDAPAVDAHYYAGVTYDYYKNVHNRLSYDGNNAAIRSSVHYSQGYNNAFWNGSQMVYGDGDGQTFIPLSGGIDVVAHELTHAVTDYTAGLIYQNESGAINEAISDIFGTLVEFYANKNPDWEIGEDVYTPGISGDSLRSMSDPAKYGDPDHYSKRYTGTQDNGGVHINSGIINKAAYLISQGGTHYGVSVVGIGRDKLGKIFYRALTQYLTPYSNFSQLRAAAVQSATDLYGSTSQEVASVKQAFDAVGVK | 1.05
Q273T: single-substitution thermolysin variant (SEQ ID NO:3 numbering) (protein, listed as Geobacillus caldoproteolyticus) ITGTSTVGVGRGVLGDQKNINTTYSTYYYLQDNTRGNGIFTYDAKYRTTLPGSLWADADNQFFASYDAPAVDAHYYAGVTYDYYKNVHNRLSYDGNNAAIRSSVHYSQGYNNAFWNGSQMVYGDGDGQTFIPLSGGIDVVAHELTHAVTDYTAGLIYQNESGAINEAISDIFGTLVEFYANKNPDWEIGEDVYTPGISGDSLRSMSDPAKYGDPDHYSKRYTGTQDNGGVHINSGIINKAAYLISQGGTHYGVSVVGIGRDKLGKIFYRALTTYLTPTSNFSQLRAAAVQSATDLYGSTSQEVASVKQAFDAVGVK | 1.08
T278S: single-substitution thermolysin variant (SEQ ID NO:3 numbering) (protein, listed as Geobacillus caldoproteolyticus) ITGTSTVGVGRGVLGDQKNINTTYSTYYYLQDNTRGNGIFTYDAKYRTTLPGSLWADADNQFFASYDAPAVDAHYYAGVTYDYYKNVHNRLSYDGNNAAIRSSVHYSQGYNNAFWNGSQMVYGDGDGQTFIPLSGGIDVVAHELTHAVTDYTAGLIYQNESGAINEAISDIFGTLVEFYANKNPDWEIGEDVYTPGISGDSLRSMSDPAKYGDPDHYSKRYTGTQDNGGVHINSGIINKAAYLISQGGTHYGVSVVGIGRDKLGKIFYRALTQYLTPSSNFSQLRAAAVQSATDLYGSTSQEVASVKQAFDAVGVK | 1.08
Q273N: single-substitution thermolysin variant (SEQ ID NO:3 numbering) (protein, listed as Geobacillus caldoproteolyticus) ITGTSTVGVGRGVLGDQKNINTTYSTYYYLQDNTRGNGIFTYDAKYRTTLPGSLWADADNQFFASYDAPAVDAHYYAGVTYDYYKNVHNRLSYDGNNAAIRSSVHYSQGYNNAFWNGSQMVYGDGDGQTFIPLSGGIDVVAHELTHAVTDYTAGLIYQNESGAINEAISDIFGTLVEFYANKNPDWEIGEDVYTPGISGDSLRSMSDPAKYGDPDHYSKRYTGTQDNGGVHINSGIINKAAYLISQGGTHYGVSVVGIGRDKLGKIFYRALTNYLTPTSNFSQLRAAAVQSATDLYGSTSQEVASVKQAFDAVGVK | 1.25
T278C: single-substitution thermolysin variant (SEQ ID NO:3 numbering) (protein, listed as Geobacillus caldoproteolyticus) ITGTSTVGVGRGVLGDQKNINTTYSTYYYLQDNTRGNGIFTYDAKYRTTLPGSLWADADNQFFASYDAPAVDAHYYAGVTYDYYKNVHNRLSYDGNNAAIRSSVHYSQGYNNAFWNGSQMVYGDGDGQTFIPLSGGIDVVAHELTHAVTDYTAGLIYQNESGAINEAISDIFGTLVEFYANKNPDWEIGEDVYTPGISGDSLRSMSDPAKYGDPDHYSKRYTGTQDNGGVHINSGIINKAAYLISQGGTHYGVSVVGIGRDKLGKIFYRALTQYLTPCSNFSQLRAAAVQSATDLYGSTSQEVASVKQAFDAVGVK | 1.05
N280E: single-substitution thermolysin variant (SEQ ID NO:3 numbering) (protein, listed as Geobacillus caldoproteolyticus) ITGTSTVGVGRGVLGDQKNINTTYSTYYYLQDNTRGNGIFTYDAKYRTTLPGSLWADADNQFFASYDAPAVDAHYYAGVTYDYYKNVHNRLSYDGNNAAIRSSVHYSQGYNNAFWNGSQMVYGDGDGQTFIPLSGGIDVVAHELTHAVTDYTAGLIYQNESGAINEAISDIFGTLVEFYANKNPDWEIGEDVYTPGISGDSLRSMSDPAKYGDPDHYSKRYTGTQDNGGVHINSGIINKAAYLISQGGTHYGVSVVGIGRDKLGKIFYRALTQYLTPTSEFSQLRAAAVQSATDLYGSTSQEVASVKQAFDAVGVK | 1.13
Q273W: single-substitution thermolysin variant (SEQ ID NO:3 numbering) (protein, listed as Geobacillus caldoproteolyticus) ITGTSTVGVGRGVLGDQKNINTTYSTYYYLQDNTRGNGIFTYDAKYRTTLPGSLWADADNQFFASYDAPAVDAHYYAGVTYDYYKNVHNRLSYDGNNAAIRSSVHYSQGYNNAFWNGSQMVYGDGDGQTFIPLSGGIDVVAHELTHAVTDYTAGLIYQNESGAINEAISDIFGTLVEFYANKNPDWEIGEDVYTPGISGDSLRSMSDPAKYGDPDHYSKRYTGTQDNGGVHINSGIINKAAYLISQGGTHYGVSVVGIGRDKLGKIFYRALTWYLTPTSNFSQLRAAAVQSATDLYGSTSQEVASVKQAFDAVGVK | 1.05
T278H: single-substitution thermolysin variant (SEQ ID NO:3 numbering) (protein, listed as Geobacillus caldoproteolyticus) ITGTSTVGVGRGVLGDQKNINTTYSTYYYLQDNTRGNGIFTYDAKYRTTLPGSLWADADNQFFASYDAPAVDAHYYAGVTYDYYKNVHNRLSYDGNNAAIRSSVHYSQGYNNAFWNGSQMVYGDGDGQTFIPLSGGIDVVAHELTHAVTDYTAGLIYQNESGAINEAISDIFGTLVEFYANKNPDWEIGEDVYTPGISGDSLRSMSDPAKYGDPDHYSKRYTGTQDNGGVHINSGIINKAAYLISQGGTHYGVSVVGIGRDKLGKIFYRALTQYLTPHSNFSQLRAAAVQSATDLYGSTSQEVASVKQAFDAVGVK | 1.07
